Source: the nanobody polyreactivity screen of Harvey et al. (2022)

Assay: yeast display, Sf9 membrane polyspecificity reagent, FACS + sequencing; frameworks hold sequencing errors
How it was run: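 Galactose induction of a Saccharomyces cerevisiae BJ5465 synthetic nanobody display library ran 36–48 hours. The cells were then stained for 1 hour at 4 °C with 10% biotinylated, detergent-solubilized Sf9 membrane reagent, pulled down on streptavidin microbeads and FACS-sorted into low and high (top ~1%) gates on expression and reagent-binding fluorescence. Labels for polyreactivity follow the gate of origin.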

Row | Sequence | polyreactivity (PSR sort gate)
1 | HVQLVESGGGLVQAGGSLRLSCAASGRILHLNAMGWYRQAPGKERELVAAITRSGSSTYYADSVKGRFTISRDNAKNTVYLQMNSLKAEDTAVYYCAADWYPHSSAYDYWGQGTQVTVSS | low polyreactivity
2 | HVQLVESGGGLVQAGGSLRLSCAASGSICSWYGMGWYRQAPGKERELVAAITWTGGSTYYADSVKGRFTISRDNAKNTVYLQMNSLKQEDTAVYYCSADLRYVGFYYWGQGTQVTVSS | high polyreactivity
3 | HVQLVESGGGLVQAGGSLRLSCAASGSIFDTYAMGWYRQAPGKERELVAAINFSDGDTYYADSVKGRFTSSRDNSKNTVYLQLNSLKPEDTAVYDCAAEVWDPPEYYDEYDYWGQGTQVTVSS | low polyreactivity
4 | HVQLVESGGGLVQAGGSLRLSCAASGSIFIIYAMGWYRQAPGKERELVAAMDWSDGSTYYADSVKGRFTISRDNANNTVYLQMNSLKPEDTAVYYCNTQSRTLGWPLDYWGQGTQVTVSS | high polyreactivity
5 | HVQLVESGGGLVQAGGSLRLSCAASGSIFVVYAMGWYRQAPGKERELVASIRTGGSTNYADSVKGRYTISRDNAKNTVYLQMNSLKPEDTAVYYCAAASWNSNRHYYVARYYYWGQGTQVTVSS | high polyreactivity
6 | HVQLVESGGGLVQAGGSLRLSCAASGSIFVYNAMGWFRPAPGKERELVAGITFIGGSTYYADSVKGRFTISRDNAKNTVYLHMNSLKPVDNAVSYCATQEDWEDDWGQGTKVTVSS | low polyreactivity
7 | HVQLVESGGGLVQAGGSLRLSCAASGSTVRRYAMGWYRQAPGKEREFVASITWRGGGTYYADSVKGRFTISRDNAKNTVYLQMNSLKPEETAVYYCASATQVRGHSLPYGYWGQGTQVTVSS | high polyreactivity
8 | HVQLVESGGGLVQAGGSLRLSCAATGRIFWLYAMGWYRQAPGKERELVAAISSGGSTSYADSVKGRFTISRDNAKNTVYVQMNSLKPEDTAVYYCNATLLFPQLDGPESGEFDYWGQGTQRTVSS | low polyreactivity
9 | HVQLVESGGGLVQAGGSLRLSCDASGRTFYRYVIGWYRQAPGKERELVAAISKSDGSSYYADSVKGRFTISRDNAKNTVYLQMNSLKPEDTAVYYCAAQYPTFYSPRPFNYWGQGTQVTVSS | high polyreactivity
10 | HVQLVESGGGLVQAGGSLRLSCPASGRTFADNAMGWYRQAPGKERELVASISSGTSTNYADSVKGRFTISRDNAQNTVYVQMNSLKPEDTAVYYCNADGPIWYTAVLGVGRYYGWTDYWGQGTQVTVSS | low polyreactivity
11 | HVQLVESGGGLVQAGGSLRVSCAASGRIFYYCARGWYGQAPGKEWELVAAITWSGGSTYYADSLMGRFTISRDNANNTVYVHKNSLKPEDPAVAYCTKSAAITGNGQMDYWGQCTQVTVSS | low polyreactivity
12 | HVQLVESGGRLVQAGGSLRLSSAASGLNFYYYAIGWSRQAPGKERELVAAISRRGGSTYYADSVKGRFTISRDNAKNTVYLQMNSLKPEVTEVYYCAAKSGSFVHGGYQTPVYGSDYWGQGTQVTVSS | high polyreactivity
13 | HVQLVESVGGLVQAGGSLRLRCAASGSIFYRNAMGWYRKAPGKERELVAAISSDGSTNYADSVKGRFTISRDNAKNSVYFQMNSLKPEDTAVYYCAAPWTQILDYWGQGTQVTVSS | low polyreactivity
14 | HVQLVESVGGLVQAGGSLRLSCAASGRILGDNVMGWYRQAPGKERELVAAISSGSGSTYYADSVKGRFTISRDNAKNTVYLQMNSLKPEDTAVYYCAAGPYIYPRYDYWGQGTQVTVSS | low polyreactivity
15 | HVQLVETGGGIVQAGGSLRLSCAASGFIFRYYARGWYRPSHGKETELVAAIDYSGGSTNYADSVKGRFTISRDYAKNTVSLQMNSLKPEDTAVYYCAAYLGWGYDYWGQGTQVTVSS | low polyreactivity
16 | HVQRVESAGGLVQAGGSLRLSCADSGLIFRGNAMGWYRQAPGKVRELVATISYSGGSTYYADSVKGRFTISRENAKNTVYLQMNSLKPEDTAVYYCNRDPDPWGFQPDWYYGSYDYWGQGTQVTVSS | low polyreactivity
17 | KVQHVESGGGLVQAGGSLRLSSAASGRISWSYAMGWYRQAPGKESELVAAITSGGTTNYAYSVKGRFTISRDNAKYTVYLQMNSLKPEDTAVYYCARDSYQLGLIRDPLEYDFWGKGTQVTVSS | low polyreactivity
18 | KVQLVEKGGGLVQAGGSLRLSSAASGLNFTIYSMGWYRQEPGKERELVATISQGGGSTYADSVKGRFTISRDNAKNTVYLQMNSLKPEDTAVYYCNAKVVWYYLYDYWGQGTQVTVSS | low polyreactivity
19 | KVQLVESCGGLVQAGGSLRLSCAASGFIISNYAMGWYRQAPGKERELVASISWGGGSTYYADSVKGSFTISRDNAKNTVYLQMNSLKPEDTAVYYCAAPSWDGIAYYGGYDYLGQGTQVTVSS | high polyreactivity
20 | KVQLVESGGGLVQAGGSLGLSCAASGSIFPSNFMGCYRQAPGKERELFAAISNTGSTYYADSVKGRVTISRDNAKNTVYLQMNSLKPEDTAVYYCAAEYWSYAHGGQLYGYDYWGQGSQVTVSS | low polyreactivity
21 | KVQLVESGGGLVQAGGSLRFSCAASGFIFRNYAMGWYRQAPGKERELVAAITARGTRTYYSDSVKGRFTISRDNAKNTVYLQMNSLKPEDTAVYYCAAVVLPSRQYDYWGQGTQVTVSS | high polyreactivity
22 | KVQLVESGGGLVQAGGSLRFSCAASGSTFYIYAMGWYRPAPGKERELVATISSTGSTHYADSVKGRFTLSRDNAKNTVYLQMISLKPEDTAVYYCNPVYFGRYSRRDHWGQGTQVTVSS | high polyreactivity
23 | KVQLVESGGGLVQAGGSLRLSCAASGFTFLRYAMGGYRQAPGKERELVAAIRFSGGSTYYADSVKGRFTISRDNAKNNVYLQMNSLKPEDTAVYYCAAYIRSYGYDYWGQGTKVTVSS | high polyreactivity
24 | KVQLVESGGGLVQAGGSLRLSCAASGIIFNLYAMGWSRQAPGKERELVAAITSSGTSTYYADSVKGRFTISRDNAKNTLYLQMNSLKPEDTAVYYCAADRGFYYFVEYDYWGQGTQVTVSS | high polyreactivity
25 | KVQLVESGGGLVQAGGSLRLSCAASGRTFRTYAMGWYRQAPGKERELVAANSSGGSTNYADSVKGRFTISRDNAKNTVYLQMNSLKPEDTSVYYCATRPTSDFVKRRVYEWLDYWGQGTQVTVSS | low polyreactivity
26 | KVQLVESGGGLVQAGGSLRLSCAASGRTFWYYAMGWYRLSPGKERELVAVITSVSSTYYADSVKGRFTISRDNAKNTVYLQMNSLKPEDTAVYYCAVGRTYRRYSAASYNYWGQGTQVTVSS | high polyreactivity
27 | KVQLVESGGGLVQAGGSLRLSCAASGSIFDYYAMGWYRQAPGKEREFVAAISISGGSTNYADSVKGRFTISRDNAKNTVYLQMNSLKPEDTAVYYCAATSRWSSYGFYVQYNYWGQGSQVTVSS | high polyreactivity
28 | KVQLVESGGGLVQAGGSLRLSCAASGSILSPNAMGWYRQAPGKERELVAAINSGGGSTYYADSVKGRFTLSRDNAKNTVYLQMNSLKPEDTAVYYCAADHYYYRSRAYTYIIYDYWGQGTQVTVSS | low polyreactivity
29 | KVQLVESGGGLVQAGGSLRLSCAASGSTFIGNAMGWYRQAPGKERELVAAISRTGGSTYADSVKGRFTISRDNAKNTVYLQMNSLKPEDTAVYYCNAVRWYYDYWGQGTQVTVSS | high polyreactivity
30 | KVQLVESGGGLVQAGGSLRLSCAASGSTFRTYAMGWYRQAPGKERELVADITWRGGSTYYADSVKGRFTISRDNAKNTDYFQMNSLKPEDTAVYYCATDRGPEVVLYVYWGQGTQVTVSS | low polyreactivity
